Assay results reported in article PMC4503747.
Values joined by “and” are separate entries in the source; they are usually repeats but may differ in a detail not shown here. Identical values can stand only once.

Molecular target: GST-Yih1[2–258], overexpressed in yeast from a galactose-inducible promoter (S. cerevisiae) (UniProt P25637)
Assay: pull-down; in vivo GST pull-down: GST fusions overexpressed in yeast from a galactose-inducible promoter (yih1Δ strains; gcn1Δ strain H2556 for the fragments; also cells arrested in G1 with α-factor and released), WCE (1-2 mg) on glutathione beads, immunoblot for endogenous proteins

Chain of GST-Yih1[2–258], overexpressed in yeast from a galactose-inducible promoter (S. cerevisiae) (P25637 2-258): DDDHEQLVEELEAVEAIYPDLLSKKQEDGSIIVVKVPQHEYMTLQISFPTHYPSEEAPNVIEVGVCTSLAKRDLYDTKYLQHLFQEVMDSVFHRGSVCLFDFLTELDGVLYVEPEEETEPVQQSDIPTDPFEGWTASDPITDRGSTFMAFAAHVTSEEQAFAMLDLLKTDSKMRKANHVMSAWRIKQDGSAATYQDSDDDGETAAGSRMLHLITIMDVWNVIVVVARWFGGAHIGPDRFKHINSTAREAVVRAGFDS

Cdc28 (endogenous, yeast whole cell extract) (from UniProt P00546 1-298) (natural protein)
fold increase of precipitated Cdc28 relative to GST-Yih1 in S-G2/M (30, 60 and 90 minutes after release) against cells arrested in G1 with α-factor: 2 fold and 3 fold
